Tested on: Escherichia coli TOP10
Assay: shrunken log2 fold change of peptide-encoding DNA abundance (4.5 h post-induction vs induction); higher = less antimicrobial activity (less host growth inhibition)
Conditions: time post-induction: 4.5 h; library: site-saturation at positions 5, 18, 19, 20
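Further: peptides expressed intracellularly from a pBAD plasmid library in pooled LB shake-flask culture, induced with 0.3% L-arabinose, DNA abundance read by NGS, three biological replicates, DESeq2 with apeglm shrinkage.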

Row | Sequence | shrunken log2 fold change
1 | RRIRQRPPRLPRPRPRPMPNPRP | -0.215
2 | RRIRQRPPRLPRPRPRPMQQPRP | -0.0642
3 | RRIRQRPPRLPRPRPRPMQVPRP | -0.0356
4 | RRIRQRPPRLPRPRPRPMRLPRP | 0.0296
5 | RRIRQRPPRLPRPRPRPMRQPRP | -0.0137
6 | RRIRQRPPRLPRPRPRPMRRPRP | 0.225
7 | RRIRQRPPRLPRPRPRPMTAPRP | 0.291
8 | RRIRQRPPRLPRPRPRPMTSPRP | -0.000946
9 | RRIRQRPPRLPRPRPRPMTTPRP | 3.23
10 | RRIRQRPPRLPRPRPRPMYRPRP | 0.0341
11 | RRIRQRPPRLPRPRPRPNDLPRP | -0.0128
12 | RRIRQRPPRLPRPRPRPNEGPRP | -0.07
13 | RRIRQRPPRLPRPRPRPNFLPRP | -0.492
14 | RRIRQRPPRLPRPRPRPNFRPRP | -0.0457
15 | RRIRQRPPRLPRPRPRPNHLPRP | -1.03
16 | RRIRQRPPRLPRPRPRPNHTPRP | -0.0975
17 | RRIRQRPPRLPRPRPRPNIAPRP | -0.0856
18 | RRIRQRPPRLPRPRPRPNIMPRP | -0.462
19 | RRIRQRPPRLPRPRPRPNKGPRP | -0.0896
20 | RRIRQRPPRLPRPRPRPNLDPRP | 0.0163
21 | RRIRQRPPRLPRPRPRPNLSPRP | -0.258
22 | RRIRQRPPRLPRPRPRPNNVPRP | -0.149
23 | RRIRQRPPRLPRPRPRPNPWPRP | 0.0932
24 | RRIRQRPPRLPRPRPRPNQLPRP | -0.499
25 | RRIRQRPPRLPRPRPRPNRLPRP | 0.0179

Row | Sequence | shrunken log2 fold change
26 | RRIRQRPPRLPRPRPRPNRTPRP | 0.0639
27 | RRIRQRPPRLPRPRPRPNRYPRP | -0.0216
28 | RRIRQRPPRLPRPRPRPNSFPRP | 0.151
29 | RRIRQRPPRLPRPRPRPNSWPRP | 0.0283
30 | RRIRQRPPRLPRPRPRPNWQPRP | -0.0119
31 | RRIRQRPPRLPRPRPRPNYDPRP | -0.257
32 | RRIRQRPPRLPRPRPRPNYTPRP | -0.207
33 | RRIRQRPPRLPRPRPRPPAVPRP | 0.408
34 | RRIRQRPPRLPRPRPRPPCVPRP | 0.214
35 | RRIRQRPPRLPRPRPRPPDAPRP | 0.228
36 | RRIRQRPPRLPRPRPRPPETPRP | 0.00852
37 | RRIRQRPPRLPRPRPRPPFAPRP | 0.742
38 | RRIRQRPPRLPRPRPRPPFEPRP | 0.333
39 | RRIRQRPPRLPRPRPRPPFLPRP | 0.186
40 | RRIRQRPPRLPRPRPRPPFWPRP | 0.504
41 | RRIRQRPPRLPRPRPRPPGKPRP | 0.0921
42 | RRIRQRPPRLPRPRPRPPGMPRP | 0.256
43 | RRIRQRPPRLPRPRPRPPHAPRP | 0.322
44 | RRIRQRPPRLPRPRPRPPHQPRP | 0.363
45 | RRIRQRPPRLPRPRPRPPHRPRP | 0.445
46 | RRIRQRPPRLPRPRPRPPHTPRP | 1.08
47 | RRIRQRPPRLPRPRPRPPICPRP | 0.0388
48 | RRIRQRPPRLPRPRPRPPIHPRP | -0.0767
49 | RRIRQRPPRLPRPRPRPPIPPRP | -0.0174
50 | RRIRQRPPRLPRPRPRPPKLPRP | 0.202

Row | Sequence | shrunken log2 fold change
51 | RRIRQRPPRLPRPRPRPPLAPRP | 0.691
52 | RRIRQRPPRLPRPRPRPPLVPRP | 0.931
53 | RRIRQRPPRLPRPRPRPPMHPRP | 0.277
54 | RRIRQRPPRLPRPRPRPPMSPRP | -0.139
55 | RRIRQRPPRLPRPRPRPPQMPRP | -0.089
56 | RRIRQRPPRLPRPRPRPPQSPRP | 0.671
57 | RRIRQRPPRLPRPRPRPPRSPRP | 0.601
58 | RRIRQRPPRLPRPRPRPPSDPRP | 1.18
59 | RRIRQRPPRLPRPRPRPPSGPRP | 0.352
60 | RRIRQRPPRLPRPRPRPPSKPRP | 0.353
61 | RRIRQRPPRLPRPRPRPPTMPRP | 0.29
62 | RRIRQRPPRLPRPRPRPPVCPRP | -0.0828
63 | RRIRQRPPRLPRPRPRPPYWPRP | 0.0656
64 | RRIRQRPPRLPRPRPRPQAHPRP | -0.23
65 | RRIRQRPPRLPRPRPRPQCVPRP | -0.0168
66 | RRIRQRPPRLPRPRPRPQEAPRP | 0.0238
67 | RRIRQRPPRLPRPRPRPQEIPRP | 0.0292
68 | RRIRQRPPRLPRPRPRPQFCPRP | -0.142
69 | RRIRQRPPRLPRPRPRPQGQPRP | 0.254
70 | RRIRQRPPRLPRPRPRPQILPRP | -0.132
71 | RRIRQRPPRLPRPRPRPQITPRP | -0.337
72 | RRIRQRPPRLPRPRPRPQLHPRP | -0.237
73 | RRIRQRPPRLPRPRPRPQLWPRP | -0.135
74 | RRIRQRPPRLPRPRPRPQMFPRP | 0.00489
75 | RRIRQRPPRLPRPRPRPQMHPRP | -0.168

Row | Sequence | shrunken log2 fold change
76 | RRIRQRPPRLPRPRPRPQNYPRP | 0.0103
77 | RRIRQRPPRLPRPRPRPQPCPRP | 0.149
78 | RRIRQRPPRLPRPRPRPQPNPRP | 0.26
79 | RRIRQRPPRLPRPRPRPQPRPRP | 0.48
80 | RRIRQRPPRLPRPRPRPQQKPRP | -0.023
81 | RRIRQRPPRLPRPRPRPQQTPRP | 0.178
82 | RRIRQRPPRLPRPRPRPQRGPRP | 0.235
83 | RRIRQRPPRLPRPRPRPQSRPRP | 0.00465
84 | RRIRQRPPRLPRPRPRPQVKPRP | -0.101
85 | RRIRQRPPRLPRPRPRPQVRPRP | -0.276
86 | RRIRQRPPRLPRPRPRPQWPPRP | 0.239
87 | RRIRQRPPRLPRPRPRPQYAPRP | -0.176
88 | RRIRQRPPRLPRPRPRPQYLPRP | -0.131
89 | RRIRQRPPRLPRPRPRPQYTPRP | -0.249
90 | RRIRQRPPRLPRPRPRPRACPRP | 0.344
91 | RRIRQRPPRLPRPRPRPRCVPRP | 1.47
92 | RRIRQRPPRLPRPRPRPRDLPRP | 0.412
93 | RRIRQRPPRLPRPRPRPRFNPRP | -0.244
94 | RRIRQRPPRLPRPRPRPRGPPRP | 0.0418
95 | RRIRQRPPRLPRPRPRPRHHPRP | 0.0815
96 | RRIRQRPPRLPRPRPRPRIHPRP | -0.234
97 | RRIRQRPPRLPRPRPRPRKNPRP | 0.309
98 | RRIRQRPPRLPRPRPRPRLEPRP | 0.109
99 | RRIRQRPPRLPRPRPRPRLLPRP | 0.0504
100 | RRIRQRPPRLPRPRPRPRPPPRP | 1.08

Row | Sequence | shrunken log2 fold change
101 | RRIRQRPPRLPRPRPRPRRFPRP | 0.222
102 | RRIRQRPPRLPRPRPRPRRLPRP | 0.752
103 | RRIRQRPPRLPRPRPRPRRNPRP | 0.327
104 | RRIRQRPPRLPRPRPRPRWIPRP | 0.274
105 | RRIRQRPPRLPRPRPRPRWMPRP | 0.0157
106 | RRIRQRPPRLPRPRPRPRYNPRP | -0.527
107 | RRIRQRPPRLPRPRPRPSASPRP | 0.0788
108 | RRIRQRPPRLPRPRPRPSCWPRP | 0.188
109 | RRIRQRPPRLPRPRPRPSDRPRP | -0.264
110 | RRIRQRPPRLPRPRPRPSEGPRP | 0.0871
111 | RRIRQRPPRLPRPRPRPSHAPRP | -0.107
112 | RRIRQRPPRLPRPRPRPSHIPRP | -0.0881
113 | RRIRQRPPRLPRPRPRPSKNPRP | 0.0658
114 | RRIRQRPPRLPRPRPRPSMTPRP | -0.285
115 | RRIRQRPPRLPRPRPRPSNEPRP | -0.5
116 | RRIRQRPPRLPRPRPRPSNHPRP | -0.346
117 | RRIRQRPPRLPRPRPRPSPCPRP | -0.0648
118 | RRIRQRPPRLPRPRPRPSPTPRP | 0.292
119 | RRIRQRPPRLPRPRPRPSPYPRP | -0.187
120 | RRIRQRPPRLPRPRPRPSRHPRP | -0.0666
121 | RRIRQRPPRLPRPRPRPSRMPRP | -0.34
122 | RRIRQRPPRLPRPRPRPSRQPRP | -0.101
123 | RRIRQRPPRLPRPRPRPSSMPRP | -0.201
124 | RRIRQRPPRLPRPRPRPSTAPRP | 0.0789
125 | RRIRQRPPRLPRPRPRPSVNPRP | -0.642

Row | Sequence | shrunken log2 fold change
126 | RRIRQRPPRLPRPRPRPSWLPRP | -0.213
127 | RRIRQRPPRLPRPRPRPSWPPRP | -0.0496
128 | RRIRQRPPRLPRPRPRPSYQPRP | -0.635
129 | RRIRQRPPRLPRPRPRPTAEPRP | 0.363
130 | RRIRQRPPRLPRPRPRPTANPRP | 0.197
131 | RRIRQRPPRLPRPRPRPTAPPRP | 0.0785
132 | RRIRQRPPRLPRPRPRPTCTPRP | -0.0329
133 | RRIRQRPPRLPRPRPRPTCVPRP | -0.442
134 | RRIRQRPPRLPRPRPRPTDKPRP | -0.112
135 | RRIRQRPPRLPRPRPRPTFAPRP | 0.209
136 | RRIRQRPPRLPRPRPRPTGIPRP | -0.177
137 | RRIRQRPPRLPRPRPRPTGSPRP | -0.0708
138 | RRIRQRPPRLPRPRPRPTKCPRP | 0.0325
139 | RRIRQRPPRLPRPRPRPTLSPRP | 0.322
140 | RRIRQRPPRLPRPRPRPTMLPRP | -0.339
141 | RRIRQRPPRLPRPRPRPTMMPRP | -0.194
142 | RRIRQRPPRLPRPRPRPTMTPRP | -0.0845
143 | RRIRQRPPRLPRPRPRPTPRPRP | 0.843
144 | RRIRQRPPRLPRPRPRPTREPRP | -0.081
145 | RRIRQRPPRLPRPRPRPTSIPRP | -0.18
146 | RRIRQRPPRLPRPRPRPTTDPRP | -0.0492
147 | RRIRQRPPRLPRPRPRPTTFPRP | -0.485
148 | RRIRQRPPRLPRPRPRPTTKPRP | -0.122
149 | RRIRQRPPRLPRPRPRPTTMPRP | -0.11
150 | RRIRQRPPRLPRPRPRPTTTPRP | -0.126

Source: the supplement of paper PMC9112550, “Optimization of the antimicrobial peptide Bac7 by deep mutational scanning” (BMC Biology, 2022)
